Measurements: patent US20190031754A1 (Scripps Research, published 2019)
Positions count from the first letter of the chain named.

B1: XBR2-401 (mAb003) (antibody, human IgG1, V domains shown)
VH: QSVKESEGGLFKPTDTLTLTCTVSGFSLSSYGVTWVRQAPGSGLEWIGYINTAGNTYYASWAKSRSTITRNTNENTVTLKMTSLTAADTATYFCARDWTSLNIWGPGTLVTVSS
VL: DPMLTQTPSSTSTAVGDTVTIKCQASQSISSDLSWYQQKPGQRPKLLIYQASTLASGVPSRFKGSGYGTEYTLTISGVQREDAAIYYCLGGYADASYRTAFGGGTKLEIK
notes: Full-length chimeric rabbit/human IgG1 (kappa) with C-terminal tags HC: LPETG-Strep, LC: G5SLPETG-Strep
B2: chimeric rabbit/human Fab XBR2-TOP9 (Fab, V domains shown)
VH: QSVEESRGRLVTPGTPLTLICTVSGIDLSSYNIQWVRQAPGKGLEYIGYINTDGSAYYASWAKGRFTISKTSTTVDLKITSPTTEDTATYFCARGGYASGFNLWGPGTLVTISS
VL: DVVMTQTPSSTSAAVGGTVTIKCQASQNIGPWLSWYQQKPGQPPKQLIYAASTLASGVPSRFKGSGSGTDYTLTISGVQREDAATYYCLGWHSWSDDGWAFGAGTNVEIK
B3: chimeric rabbit/human Fab ERR2-316 (Fab, V domains shown)
VH: QKQLVESGGRLVTPGGSLTLTCTVSGFSLSKYGVSWVRQAPGSGLEYIGTIGGSGTSYYASWAKSRSTITRNTNLNTVTLKMTSLTAADTATYFCARYFGWNTGFDIWGPGTLVTISS
VL: DPVMTQTPSSVSEPVGGTVTIKCQASQSISNALAWYQQKPGQPPKRLIYKASTPASGVPSRFKGSRSGTEYTLTISGVQREDAATYYCLGFSVVSNDGWAFGAGTNVEIK
B4: chimeric rabbit/human Fab ERR2-308 (Fab, V domains shown)
VH: QEQLEESGGRLVTPGTPLTLTCAVSGFSLSNYAMGWVRQAPGEGLEYIGWISAGGGAYYASWVNGRFTISKTSSTVDLKMTSLTAADTATYFCARGASNGCDLWGPGTLVTVSS
VL: DPMLTQTPSSVSAVVGGTVTIKCQASQSITSWLSWYQQKPGQPPKLLIYGASHLASGVPSRFKGSGYGTEFTLTISGIQREDAATYYCLGGYSNSDIVFGGGTELEIL
B5: chimeric rabbit/human Fab XBR2-327 (Fab, V domains shown)
VH: QEQLKESGGGLFKPTDTLTLTCTVSGFSLSSGAISWVRQAPGNGLEYIGFVNSLGNTYYANWAKSRSAITRNTNENTVTLKMTSLAAADTATYFCAKDYGNWAFDPWGPGTLVTVSS
VL: DPVLTQTPSSVSAAVGGTVAINCQASQSISSYLSWYQQKPGQPPKLLIYGASKLASGVPSRFSGSGSGTEYTLTISGVQREDAATYYCLGGYASASYRTAFGGGTKLEIK
B6: chimeric rabbit/human Fab ERR2-317 (Fab, V domains shown)
VH: QSLEESGGRLVTPGTPLTLTCTASGFSLSSYDMIWVRQAPGKGLEYIGIINAGGNTYYASWAKGRFTISRTSTTVDLKMTSPTTEDTATYFCARGSSWTGDIWGPGTLVTVSS
VL: B5 VL with V11T, A20T, N22K, L46Q, G50A, K53T, S63K, R98Q, L107V
B7: chimeric rabbit/human Fab ERR2-TOP35 (Fab, V domains shown)
VH: QSVKESEGGLFKPMDTLTLTCTVSGFSLNTYGVSWVRQAPGNGLEWIGAVGSSGATNYASWAKSRSTITRNTNENTVTLKMTSLTAADTATYFCARDGYYSSGWGPYFSIWGPGTLVTVSS
VL: SFVLTQPASVQVNLGQTVSLTCTAETLRSSYASWYQQKPGQAPVLLIYRDTSRPSGVPDRFSGSSSGNTATLTISGAQAGDEADYYCATSDGSGSRYYVFGGGTQLTVTG
B8: chimeric rabbit/human Fab XBR2-433 (Fab, V domains shown)
VH: B7 VH with M14T, N29S, V50I, A55S, T56A, S64D, E74L, S109N, V119I
VL: SFVLTQPASVQVNLGQTVSLTCTADTLSRSYASWYQQKPGQAPVLLIYRDTSRPSGVPDRFSGSSSGNTATLTISGAQAGDEADYYCATSGGSGSNPQYVFGGGTQLTVTG
notes: also called Fab 4-33
B9: chimeric rabbit/human Fab ERR2-TOP2 (Fab, V domains shown)
VH: QSLEESGGRLVTPGTPLTLTCTVSGFSLSSYAISWVRQAPGKGLEWIGTIGTRGDTAYANWAKGRFTISKTSTTVTLKMTSPTTEDTATYFCARELVAGGGSDLWGPGTLVTVSS
VL: DVVMTQTPSSVSAVVGGTVTIKCQASQSITSWLSWYQQKPGQPPKLLIYGASHLASGVPSRFKGSGYGTEFTLTISGIQREDAATYYCLGGYLSASYQTAFGGGTKVEIK
B10: chimeric rabbit/human Fab XBR2-401 (Fab, V domains shown)
VH: B1 VH
VL: B1 VL
notes: also called Fab 4-1
B11: chimeric rabbit/human Fab XBR2-416 (Fab, V domains shown)
VH: QEQLEESGGRLVTPGTPLTLTCTVSGFSLSSYWMSWVRQAPGKGLEWIGTITPGGNTDYATWAKARFTVSKTSTTVDLKITSPTTEDTATYFCARGIGGAADLWGPGTLVTISS
VL: AQVLTQTPSSTSAAVGGTVTIKCQASQSISSSDLSWYQQKPGQPPKLLIYATSYLASGVPSRFKGSGSGTEYTLTISGVQREDAATYYCLGGYPNTSYRSAFGGGTKVEIK
notes: also called Fab 4-16
B12: chimeric rabbit/human Fab ERR2-302 (Fab, V domains shown)
VH: QKQLVESGGGLVKPGGSLTLTCTVSGFSLSSYAIGWVRQAPGNGLEWIGIINSYGSTYYASWAKSRSTITRNTNLNTVTLKMTSLTAADTATYFCARSPYGYVSAWGYHRLDLWGQGTLVTISS
VL: SYELTQLPSVSVSLGQTARITCGGASIGSKVVHWYQQKPGLAPGLLIYDDDERPSGVPDRFSGSNSGDTATLTISGAQAGDEAEYYCQLWDGSDVVFGGGTQLTVTG
B13: chimeric rabbit/human Fab XBR2-TOP72 (Fab, V domains shown)
VH: QEQLEESGGRLVTPGTPLTLTCTVSGIDLSSNAMSWVRQAPGKGLEYVGFINGGGGVHYASWARGRFTISKTSTTVDLKITSPTTEDTATYFCARAGTTYYTSFNLWGPGTLVTISS
VL: QFVLTQSPSASAALGSSAKLTCTLSSAHKTYTIAWYQQQQGEAPRLLMMLRTDGSYTKGTGVPDRFSGSSSGADRYLIISSVQADDAAGYYCGADYSGGYVFGGGTQLTVTG
B14: XBR2-327 (mAb007) (antibody, human IgG1, V domains shown)
VH: B5 VH
VL: B5 VL
notes: Full-length chimeric rabbit/human IgG1, human IgH-gamma1 and IgL-kappa constant regions; C-terminal tags HC: LPETG-Strep, LC: G5SLPETG-Strep

What follows are binders tested against T1, recombinant human twin strep-tagged ROR2 extracellular domain (human, UniProt Q01974 34-403) (assay: ELISA, IgG titrated on coated twin-strep human ROR2 ECD; fit printed as IC50).
T1 construct: extracellular domain; Made in HEK293T, Streptactin purified; also called Human ROR2-TwinStrep; human ROR2

Binder	IC50
B1	0.0505 µg/mL

The binders below were run against T2, hFc-hROR1 (human, UniProt Q01973 30-403, limits assumed) (assay: ELISA, coated antigen 100 ng/well, anti-His HRP, absorbance 405 nm).
T2 construct: also called ROR1 (ELISA control); not shown: human Fc (hFc) of pCEP4-hFc-hROR1 (Yang et al., 2011)
T2 sequence (Q01973 30-403 limits assumed): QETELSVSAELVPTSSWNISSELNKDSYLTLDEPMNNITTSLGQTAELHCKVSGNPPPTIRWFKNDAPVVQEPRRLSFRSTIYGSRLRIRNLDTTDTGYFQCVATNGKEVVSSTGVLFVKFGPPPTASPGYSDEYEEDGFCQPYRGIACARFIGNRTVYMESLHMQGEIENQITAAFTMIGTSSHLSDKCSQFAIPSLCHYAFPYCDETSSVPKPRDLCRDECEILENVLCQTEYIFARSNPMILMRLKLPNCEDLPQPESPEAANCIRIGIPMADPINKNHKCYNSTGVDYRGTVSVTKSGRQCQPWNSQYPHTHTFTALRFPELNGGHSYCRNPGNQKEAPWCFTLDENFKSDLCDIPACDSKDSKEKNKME

Binder	binding result
B2	no binding (tested: 100 ng/50 µL)
B3	no binding (tested: 100 ng/50 µL)
B4	no binding (tested: 100 ng/50 µL)
B5	no binding (tested: 100 ng/50 µL)
B6	no binding (tested: 100 ng/50 µL)
B7	no binding (tested: 100 ng/50 µL)
B8	no binding (tested: 100 ng/50 µL)
B9	no binding (tested: 100 ng/50 µL)
B10	no binding (tested: 100 ng/50 µL)
B11	no binding (tested: 100 ng/50 µL)
B12	no binding (tested: 100 ng/50 µL)
B13	no binding (tested: 100 ng/50 µL)

What follows are binders tested against T3, BSA (bovine, UniProt P02769) in the same assay as above.
T3 construct: also called bovine serum albumin
T3 sequence (P02769 25-607 limits assumed): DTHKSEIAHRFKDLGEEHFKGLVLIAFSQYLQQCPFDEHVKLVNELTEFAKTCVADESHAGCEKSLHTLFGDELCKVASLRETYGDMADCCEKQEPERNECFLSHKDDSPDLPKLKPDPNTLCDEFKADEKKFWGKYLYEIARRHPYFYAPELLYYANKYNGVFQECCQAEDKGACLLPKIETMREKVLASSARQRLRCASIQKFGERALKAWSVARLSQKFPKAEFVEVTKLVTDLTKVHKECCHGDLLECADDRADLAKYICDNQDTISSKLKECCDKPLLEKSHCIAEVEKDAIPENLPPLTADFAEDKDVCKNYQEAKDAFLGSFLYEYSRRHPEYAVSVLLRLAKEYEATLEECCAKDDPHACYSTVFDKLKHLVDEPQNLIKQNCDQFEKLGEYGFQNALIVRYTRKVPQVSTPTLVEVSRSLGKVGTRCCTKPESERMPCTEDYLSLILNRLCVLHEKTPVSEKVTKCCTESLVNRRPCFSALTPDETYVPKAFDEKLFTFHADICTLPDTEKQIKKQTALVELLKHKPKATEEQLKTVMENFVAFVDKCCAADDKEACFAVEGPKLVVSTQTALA

Binder	binding result
B2	no binding (tested: 100 ng/50 µL)
B3	no binding (tested: 100 ng/50 µL)
B4	no binding (tested: 100 ng/50 µL)
B5	no binding (tested: 100 ng/50 µL)
B6	no binding (tested: 100 ng/50 µL)
B7	no binding (tested: 100 ng/50 µL)
B8	no binding (tested: 100 ng/50 µL)
B9	no binding (tested: 100 ng/50 µL)
B10	no binding (tested: 100 ng/50 µL)
B11	no binding (tested: 100 ng/50 µL)
B12	no binding (tested: 100 ng/50 µL)
B13	no binding (tested: 100 ng/50 µL)

What follows are binders tested against T4, anti-human Fc (Jackson ImmunoResearch, 109-006-008) (assay: ELISA, IgG titrated on coated anti-human Fc; fit printed as IC50).
T4 construct: Coated on a control plate to capture the chimeric IgG1 antibodies through their human Fc; also called IgG

Binder	IC50
B14	0.0433 µg/mL
B1	0.0856 µg/mL

What follows are binders tested against T5, recombinant cynomolgus twin strep-tagged ROR2 extracellular domain (cynomolgus monkey, UniProt A0A7N9D5U8 34-403) (assay: ELISA, IgG titrated on coated twin-strep cynomolgus ROR2 ECD; fit printed as IC50).
T5 construct: extracellular domain; Made in HEK293T, Streptactin purified; also called cynomolgus ROR2; cynomolgus ROR2-TwinStrep

Binder	IC50
B1	0.0433 µg/mL

Target: T4, anti-human Fc (Jackson ImmunoResearch, …)
Assay: ELISA, IgG titrated on coated anti-human Fc; fit printed as IC50
Remark: another data set of the same source

Binder	IC50
B14	0.0102 µg/mL
B1	0.0068 µg/mL

What follows are binders tested against T1, recombinant human twin strep-tagged … (assay: SPR, Biacore T200, IgG captured by anti-human Fcγ, ROR2-TwinStrep as analyte, 1:1 Langmuir).

Binder	Kd
B1	≤ 10.2 nM

These binders were tested against T5, recombinant cynomolgus twin … in the same assay as above.

Binder	Kd
B1	≤ 1.1 nM

These binders were tested against T6, full-length human ROR2 on cells (human, UniProt Q01974 34-943) (assay: flow cytometry, 63-12 cells expressing hROR2, Fab 1 µg/100 µL, anti-His Alexa Fluor 488).
T6 construct: whole, on cells; the cells are named under assay; In the Western blot it is denatured; also called hROR2; cell surface human ROR2

Binder	binding result
B2	binds
B9	binds
B13	binds

Target: T1, recombinant human twin strep-tagged …
Assay: ELISA, IgG titrated on coated twin-strep human ROR2 ECD; fit printed as IC50
Remark: another data set of the same source

Binder	IC50
B14	0.00057 µg/mL
B1	0.0419 µg/mL
